Source: article PMC9684487, “Human antibody recognition and neutralization mode on the NTD and RBD domains of SARS-CoV-2 spike protein” (Scientific Reports, 2022)

B1: NIBIC-71 (antibody, V domains shown)
VH: EVQLVESGGGLIQPGGSLRLSCEASGLIVSSNYMTWVRQAPGKGLEWVSVIYSGGSTFYADSVKGRFTVSRDNSKNTLYLQMNNLSPEDTAVYYCARDLGPYGVDVWGQGTTVTVSS
VL: AIQLTQSPSSLSASVGDRVTITCRASQGISSYLAWYQQTPGKAPKLLIYAASTLQSGVPSRFSGSGSGTDFTLTISSLQPEDFATYYCQQLNSYPPFTFGPGTKVDIK
notes: also called recombinant mAb NIBIC-71
B2: 7G7/κ (antibody, V domains shown)
VH: QVQLVESGGGVVQPGRSLRLSCIASGFTFRNYAMYWVRQAPGKGLEWVAVIWYDGSNKFYTDSVKGRFTISRDNSKNSLYLQMNSLRAEDTAVYFCARDQGFGDNYYYYGMDVWGQGTTVTVSS
VL: SYELTQPPSVSVSPGQTARISCSGDALPKEYAYWYQQKPGQAPVLVIYKDSERPSGIPERFSGSSSGTTVTLTISGVQAEDEADYYCQLADSSMHYVVFGGGTKLTVL
notes: also called 7G7-IgG1κ; 7G7/κ (IgG1/Igκ); source: Expi293F, cotransfected with IgH and IgL vectors, purified (HiTrap Protein G)

Target: T1, S protein trimer with D614G mutation (SARS-CoV-2, D614G, D614G)
T1 construct: also called Spike; homotrimeric S protein
Assay: cryo-EM structure
Details: both partners purified

Binder	stoichiometry N [Fabs per S protein trimer]
B1	2
B2	3
